The values that follow come from article PMC7963221 (2021).

Experiment in all cases: FACS
On the technique in general: In flow cytometry, cells or beads pass a laser one at a time.

In assay [1] the target is Pangolin_GX- RBD.
In assay [2] the target is CS24 RBD.
The target in assay [3] is Civet 007-2004 RBD.
The target in assay [4] is GD-Pangolin RBD.
The target in assay [5] is SHC014 RBD.
Assay [6] deals with A021 RBD.
The target in assay [7] is WIV1 RBD.
Assay [8] concerns the target LYRa11 RBD.
Assay [9] addresses Frankfurt 1 RBD.
Assay [10] deals with Rs4231 RBD.
In assay [11] the target is SARS-CoV RBD displayed on the surface of yeast (SARS-CoV, UniProt P59594).
Assay [12] has as its target SARS-CoV-2 RBD (WT) displayed on the surface of yeast (SARS-CoV-2, UniProt P0DTC2).
Assay [13] has as its target BM48-31 RBD.
The target of assay [14] is RaTG13 RBD.

B1: ADG-2 (antibody, V domains shown)
VH: EVQLVESGGGLVKPGGSLRLSCAASGFTFSSYYMNWVRQAPGKGLEWVSSISEDGYSTYYPDSLKGRFTISRDSAKNSLYLQMNSLRADDTAVYYCARDFSGHTAWAGTGFEYWGQGTLVTVSS
VL: QSVLTQPPSVSGAPGQRITISCTGSSSNIGAGYDVHWYQQLPGTAPKLLIYGSSSRNSGVPDRFSGSKSGTSASLAITGLQAEDEADYYCQSYDSSLSVLYTFGTGTKVTVL
One may read the Kd as the constant that tells how readily two partners part at equilibrium. B1: the Kd in assay [1] stood at 1.12 nM; in assay [2], 0.45 nM; in assay [3], 0.35 nM; in assay [4], 0.24 nM; in [5] it was 0.33 nM; in [6] it was 0.47 nM. The Kd in assay [7] was 0.42 nM; in assay [8], 0.47 nM; in assay [9] it was 0.38 nM; in assay [10], 0.4 nM; in assay [11], 0.39 nM; in assay [12], 0.43 nM.

B2: ADG-3 (antibody, V domains shown)
VH: EVQLVESGGGLIQPGGSLRLSCAASGFPFKGTYMTWVRQAPGKGLEWVSIIYSGGDTYYADSVKGRFTISRDNSKNTLFLQMNSLRVEDTAMYYCARDREMAIITERTYGLDVWGQGTMVTVSS
VL: QSVLTQPPSASGTPGQRVTISCSGGSSNIGSNSVNWYQQLPGTAPKLLIYSNSQRPSGVPDRFSGSKSGTSASLAISGLQSEDEADYYCAAWDDSLNTFRYVFGTGTKVTVL
Turning to B2, the Kd in assay [2] is 1.05 nM; in assay [3], 0.9 nM; in assay [4], 0.68 nM; in assay [5], 0.93 nM; in assay [6] it was 0.91 nM; in assay [13], 3.09 nM. The Kd was 0.72 nM in assay [7]; 0.92 nM in assay [8]; 0.88 nM in assay [14]; 0.96 nM in assay [9]; 1.07 nM in assay [10]; 0.91 nM in assay [11]. For the same molecule, binding in assay [12] was characterised by a dissociation constant (Kd) of 0.55 nM.

B3: ADG-1 (antibody, V domains shown)
VH: QVQLVESGGGLVQPGGSLRLSCSASGFTFSRFAMHWVRQAPGKGLEYVSAINLNGDSKYYTDSVRGRFTISRDNSKNTLYLQMSSVRPDDTAFYYCVKDGGYYDSSGPGHWGQGTLVTVSS
VL: EIVLTQSPATLSLSPGERATLSCRASENILHYLAWYQQKPGQAPRLVIYDASRRATGIPGRFSGSGAGTDFTLTINSLEPEDFAVYYCQQRANWPQNFGGGTKVEIK
Take B3: the Kd in assay [2] amounted to 0.97 nM; in assay [3] it was 0.78 nM; in assay [4], 0.87 nM; in [6], 0.95 nM; in assay [7] it was 0.68 nM; in assay [8], 0.79 nM. For the same molecule, the Kd in assay [9] worked out at 0.97 nM; in assay [11], 1.09 nM; in assay [12] it was 0.73 nM.
